Positions count from the first letter of the chain named.
T1: human FcgRIIb (human)
T1 chain: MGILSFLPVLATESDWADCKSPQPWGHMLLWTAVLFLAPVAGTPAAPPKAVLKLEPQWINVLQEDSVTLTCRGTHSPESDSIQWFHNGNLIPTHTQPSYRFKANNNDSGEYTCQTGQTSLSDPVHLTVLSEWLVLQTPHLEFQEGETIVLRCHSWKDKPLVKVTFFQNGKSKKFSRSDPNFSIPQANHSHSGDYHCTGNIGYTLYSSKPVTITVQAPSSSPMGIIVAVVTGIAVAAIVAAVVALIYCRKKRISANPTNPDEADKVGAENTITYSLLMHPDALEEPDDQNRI

T2: human FcgRIIa(R) (human)
T2 chain: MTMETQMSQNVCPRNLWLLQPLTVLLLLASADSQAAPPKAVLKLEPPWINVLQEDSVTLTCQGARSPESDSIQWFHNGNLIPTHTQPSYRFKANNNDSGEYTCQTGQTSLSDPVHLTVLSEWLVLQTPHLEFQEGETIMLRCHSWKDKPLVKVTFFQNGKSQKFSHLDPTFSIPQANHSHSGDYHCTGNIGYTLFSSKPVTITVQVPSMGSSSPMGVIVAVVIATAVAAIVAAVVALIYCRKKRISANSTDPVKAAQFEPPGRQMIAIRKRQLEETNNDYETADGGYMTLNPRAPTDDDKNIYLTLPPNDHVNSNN

B1: IL6R-BP089 (antibody)
chain 1: QVQLQESGPGLVKPSETLSLTCAVSGHSISHDHAWSWVRQPPGEGLEWIGFISYSGITNYNPSLQGRVTISRDNSKNTLYLQMNSLRAEDTAVYYCARSLARTTAMDYWGEGTLVTVSSASTKGPSVFPLAPSSKSTSGGTAALGCLVKDYFPEPVTVSWNSGALTSGVHTFPAVLQSSGLYSLSSVVTVPSSSLGTQTYICNVNHKPSNTKVDKKVEPKSCDKTHTCPPCPAPEYLGGDSVFLFPPKPKDTLMISRTPEVTCVVVDVSHEDPEVKFNWYVDGVEVHNAKTKPREEQYNSTYRVVSVLTVLHQDWLNGKEYKCKVSNAALPKPIEKTISKAKGQPREPQVYTLPPSRDELTKNQVSLTCLVKGFYPSDIAVEWESNGQPENNYKTTPPVLDSDGSFFLYSKLTVDKSRWQQGNVFSCSVMHEALHNHYTQESLSLSP
chain 2: DIQMTQSPSSLSASVGDRVTITCRASQDISSYLNWYQQKPGKAPKLLIYYTSRLHSGVPSRFSGSGSGTDFTFTISSLQPEDIATYYCQQGNTLPYTFGQGTKVEIK
B2: IL6R-BP129 (antibody)
chain 1: B1 chain 1 with E235D, Y236L, Y298D, A328K
chain 2: B1 chain 2
B3: IL6R-BP082 (antibody)
chain 1: B1 chain 1 with E235D, Y236L, A328K
chain 2: B1 chain 2
B4: IL6R-BP131 (antibody)
chain 1: B1 chain 1 with E235D, Y236L, G239D, A328K
chain 2: B1 chain 2
B5: IL6R-BP177 (antibody)
chain 1: B1 chain 1 with E235D, G239D, P273G, A328D
chain 2: B1 chain 2
B6: IL6R-BP181 (antibody)
chain 1: B1 chain 1 with E235D, Y236L, P273G
chain 2: B1 chain 2
B7: IL6R-BP088 (antibody)
chain 1: B1 chain 1 with Y236L, G239D
chain 2: B1 chain 2
B8: IL6R-BP086 (antibody)
chain 1: B1 chain 1 with Y236L
chain 2: B1 chain 2
B9: IL6R-BP132 (antibody)
chain 1: B1 chain 1 with E235D, Y236L
chain 2: B1 chain 2
B10: IL6R-BP178 (antibody)
chain 1: B1 chain 1 with E235D, Y236L, G239D, P273G, A328K
chain 2: B1 chain 2
B11: IL6R-BP148 (antibody)
chain 1: B1 chain 1 with E235D, G239D
chain 2: B1 chain 2
B12: IL6R-BP176 (antibody)
chain 1: B1 chain 1 with E235D, Y236L, A328D
chain 2: B1 chain 2
B13: IL6R-BP151 (antibody)
chain 1: B1 chain 1 with E235D, G239D
chain 2: B1 chain 2
B14: IL6R-BP147 (antibody)
chain 1: B1 chain 1 with G239D
chain 2: B1 chain 2
B15: IL6R-BP152 (antibody)
chain 1: B1 chain 1 with E235D, G239D, Y298D
chain 2: B1 chain 2
B16: IL6R-BP143 (antibody)
chain 1: B1 chain 1 with K332A
chain 2: B1 chain 2
B17: IL6R-BP145 (antibody)
chain 1: B1 chain 1 with G239D, A328K, K332A
chain 2: B1 chain 2
B18: IL6R-BP087 (antibody)
chain 1: B1 chain 1 with A328K
chain 2: B1 chain 2
B19: IL6R-BP130 (antibody)
chain 1: B1 chain 1 with E235D, Y236L, V325M, A328K
chain 2: B1 chain 2
B20: IL6R-BP149 (antibody)
chain 1: B1 chain 1 with E235D, G239D, Y298D
chain 2: B1 chain 2
B21: IL6R-BP144 (antibody)
chain 1: B1 chain 1 with Y236L, G239D, K332A
chain 2: B1 chain 2
B22: IL6R-PD081 (antibody)
chain 1: B1 chain 1 with Y236L, G239E, M254Y, A328K, K332A, N436Y, E441K
chain 2: B1 chain 2
B23: F1333 (antibody)
chain 1: QVQLQESGPGLVKPSETLSLTCAVSGHSISHDHAWSWVRQPPGEGLEWIGFISYSGITNYNPSLQGRVTISRDNSKNTLYLQMNSLRAEDTAVYYCARSLARTTAMDYWGEGTLVTVSSASTKGPSVFPLAPSSKSTSGGTAALGCLVKDYFPEPVTVSWNSGALTSGVHTFPAVLQSSGLYSLSSVVTVPSSSLGTQTYICNVNHKPSNTKVDKKVEPKSCDKTHTCPPCPAPELRRGPKVFLFPPKPKDTLYISRTPEVTCVVVDVSHEDPEVKFNWYVDGVEVHNAKTKPREEQYNSTYRVVSVLTVLHQDWLNGKEYKCKVSNKALPAPIEKTISKAKGQPREPQVYTLPPSRDELTKNQVSLTCLVKGFYPSDIAVEWESNGQPENNYKTTPPVLDSDGSFFLYSKLTVDKSRWQQGNVFSCSVMHEALHYHVTQKSLSLSP
chain 2: not shown
B24: F1325 (antibody)
chain 1: B23 chain 1 with L236A, R237A, R238G, K241S, N299A
chain 2: not shown
B25: F1318 (antibody)
chain 1: B23 chain 1 with R237L, R238G, P331R
chain 2: not shown
B26: F1324 (antibody)
chain 1: B23 chain 1 with L236A, R237A, R238G, K241S
chain 2: not shown
B27: F1356 (antibody)
chain 1: B23 chain 1 with R237L, K241S, L330R
chain 2: not shown
B28: F1327 (antibody)
chain 1: B23 chain 1 with L236A, R237A, R238G, K241S, T252V, N299A, T309Q, V310P, Q313A
chain 2: not shown
B29: F890 (antibody)
chain 1: B23 chain 1 with R237L, R238G, K241S
chain 2: not shown
B30: F1317 (antibody)
chain 1: B23 chain 1 with R237L, R238G, P331K
chain 2: not shown
B31: F938 (antibody)
chain 1: B23 chain 1 with R237K, R238G
chain 2: not shown
B32: F1316 (antibody)
chain 1: B23 chain 1 with R237L, R238G, G239R
chain 2: not shown
B33: F1315 (antibody)
chain 1: B23 chain 1 with R237L, R238G, G239K
chain 2: not shown

Biological target: T1, human FcgRIIb
Assay: SPR

Row | Kd [µM] | Binder
1 | 0.39 | B1
2 | 0.52 | B2
3 | 0.54 | B3
4 | 0.25 | B4
5 | 0.052 | B5
6 | 0.16 | B6
7 | 0.22 | B7
8 | 0.57 | B8
9 | 0.27 | B9
10 | 0.051 | B10
11 | 0.075 | B11
12 | 0.36 | B12
13 | 0.04 | B13
14 | 0.066 | B14
15 | 0.041 | B15
16 | 0.57 | B16
17 | 0.34 | B17
18 | 0.61 | B18
19 | 0.3 | B19
20 | 0.093 | B20
21 | 0.79 | B21

Biological target: T2, human FcgRIIa(R)
Assay: SPR

Row | Kd [µM] | Binder
22 | 6.4 | B1
23 | 1.5 | B2
24 | 1.2 | B3
25 | 3.1 | B4
26 | 0.71 | B5
27 | 3.2 | B6
28 | 2.9 | B7
29 | 9.7 | B8
30 | 8 | B9
31 | 0.93 | B10
32 | 1.1 | B11
33 | 6.9 | B12
34 | 0.67 | B13
35 | 0.89 | B14
36 | 0.81 | B15
37 | 5.7 | B16
38 | 3.4 | B17
39 | 9.7 | B18
40 | 5.3 | B19
41 | 1.4 | B20
42 | 2.9 | B21

Biological target: T1, human FcgRIIb
Assay: SPR
Remark: another data set of the same source

Row | Kd [µM] | Binder
43 | 3.6 | B22

Biological target: T2, human FcgRIIa(R)
Assay: SPR
Remark: another data set of the same source

Row | Kd [µM] | Binder
44 | 38 | B22

Biological target: human FcgRIa (human)
Assay: SPR

human FcgRIa (human), sequence (chain, as listed by the source): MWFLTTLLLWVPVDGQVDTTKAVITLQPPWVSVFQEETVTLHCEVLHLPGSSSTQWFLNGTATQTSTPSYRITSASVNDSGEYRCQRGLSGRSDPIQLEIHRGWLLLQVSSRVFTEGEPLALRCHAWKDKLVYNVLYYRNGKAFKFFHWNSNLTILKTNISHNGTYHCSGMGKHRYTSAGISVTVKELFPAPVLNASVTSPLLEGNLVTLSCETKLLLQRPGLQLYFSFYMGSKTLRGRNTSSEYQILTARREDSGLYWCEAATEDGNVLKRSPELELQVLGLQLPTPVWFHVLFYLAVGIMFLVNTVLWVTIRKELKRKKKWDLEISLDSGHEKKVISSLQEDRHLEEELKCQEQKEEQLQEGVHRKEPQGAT

Row | Kd [µM] | Binder
45 | 0.063 | B1
46 | 0.025 | B2
47 | 0.001 | B3
48 | 0.12 | B4
49 | 0.033 | B5
50 | 0.0075 | B6
51 | 0.3 | B7
52 | 0.027 | B8
53 | 0.0015 | B9
54 | 0.043 | B10
55 | 0.089 | B11
56 | 0.0073 | B12
57 | 0.084 | B13
58 | 0.14 | B14
59 | 0.073 | B15
60 | 1.6 | B16
61 | 0.12 | B17
62 | 0.03 | B18
63 | 0.0019 | B19
64 | 0.12 | B20
65 | 3.7 | B21

Biological target: human FcgRIa (human)
Assay: SPR
Remark: another data set of the same source

Row | Kd [µM] | Binder
66 | 0.34 | B22

Biological target: human FcRn (with beta2-microglobulin) (human)
Assay: SPR, pH 7.0

Row | Kd [µM] | Binder
67 | 0.123 | B23
68 | 0.213 | B24
69 | 0.143 | B25
70 | 0.132 | B26
71 | 0.158 | B27
72 | 0.014 | B28
73 | 0.107 | B29
74 | 0.138 | B30
75 | 0.161 | B31
76 | 0.149 | B32
77 | 0.152 | B33

From patent US10618965 (dated 2020)
